Data on 30 sequences can be found in the nanobody polyreactivity screen of Harvey et al. (2022).

The nature of the series: yeast display, Sf9 membrane polyspecificity reagent, FACS + sequencing; frameworks hold sequencing errors. The method in brief: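 Using colony PCR, genes from sorted yeast display clones were amplified, then sequenced on MiSeq at 2 × 250 and filtered by CDR length. The clones had been stained with 10% biotinylated, detergent-solubilized Sf9 membrane reagent for 1 hour at 4 °C and sorted by FACS into low and high (top ~1%) gates on anti-HA and streptavidin fluorescence. Polyreactivity labels come from the gate of origin.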
In the case of “HVQLVESGGGLVQAGGSLRLSCAASGSIFVYNAMGWFRPAPGKERELVAGITFIGGSTYYADSVKGRFTISRDNAKNTVYLHMNSLKPVDNAVSYCATQEDWEDDWGQGTKVTVSS”, the “polyreactivity (PSR sort gate)” value is listed as “low polyreactivity”. In the case of “QVQLVESGGGLVQAGGSLRLSCAASGLIFGYYAMGWYRQAPGKESELVDAFSFSGGSTYYADSVKGRFTISRDNAKNTVYLQMNSLKPEDTAVYYCAADLDGSSEYEYWGQCTQVTVSS” it was “low polyreactivity”. In the case of “QVQLVESGGVLVQAGGSLRLSCASSGSTFTKYAMGWYRQAPGKERELVAAISRSGGGTYYADSVKGRFTISRDNAKNTVYLQMNSLKPEDTAVYYCNAALFRGAQFDYWGQGTQVTVSS”, the “polyreactivity (PSR sort gate)” value was “high polyreactivity”.

On to “QVQLVESGGGLLQAGGSLRLSCAASGSTFSRYTMGWYRQAPGKERELVAAISYRGGSTYYADSVKGRFTISRDNAKNTVYLQMNSLKPEDTAVYYCAAEFRVEGSDYDYWGQGTQVTVSS”, for which the “polyreactivity (PSR sort gate)” value is listed as “low polyreactivity”. In the case of “QVQLVESGGGLVQAGGSLRLTCAASGRTFRGYVKAWSRQAPGKERELVAAISWSGGSTYYADSVKGRFTISRDNAKNSVYLQMKSLKPEDTAVYYCAARRYSYVGGQGSDYWGQGTLVTVSS” it was “high polyreactivity”; in that of “QVQLVESGGGLVQAGGSLRLSCAASGIIFRSYTMGWYRQAPGKERELVASITRSGGITYYADSVKGRFTISRDNAKNTVYLQMNSLKPEDTAVYYCSARHRYYSYSGYDYWGQGTQVTVSS”, “high polyreactivity”. As for “QVQLVESGGGLVQAGGRLRLSCAASGSTFVRYAMGWYRQAPGKERELVAAISSSGATTYYADSVKGRFTISRDNAKNTVYLQMNSLKPEDTAVYYCAKYGRATRGLDNYWGQGTQVTVSS”, the “polyreactivity (PSR sort gate)” value is recorded as “high polyreactivity”.

“QVQLVESGGGLVQAVGSLRLSCAASGRIFRVNAMGWYRQAPGKERELVASITSGGSTHYADSVKGRFTISRDNAKNTVYLQMNSLKPEDTAVYYCNVAYGLLWISPGGDYWGQGTQVTVSS”: the “polyreactivity (PSR sort gate)” value was “low polyreactivity”. In the case of “QVQLVESGGGLFQAGGSLRLSCAASGRIFYYNTMGWYRQAPGIERELVAGISTRGGRTYYADSVKGRFTISRDNAKNTVYLQMNSLKPEDTAVYYCAKQYGSYGRYYKYYYWGQGTQLTVSS” it was “high polyreactivity”; in that of “QVQLVESGGGLVQAGGSLRLSWAASGRIFYFYAMGWYRQAPGKERELVASISSGGITNYADSVKGRFTISRDNAKNTVYLQMNSLKPEDTAVYYCNAGYASGKYSGGYLYGYWGQGTQVTVSS”, “low polyreactivity”. In the case of “QVHLQERGGGLVQAGGSLRLSCAASGSIFYWPWMGWYRQAPGREREFVATITTGSNTYYADSMKGHLTNSRDNAINTVYLQMISQKPEDTAVYFCAVVGDGEIEHRYWGQGTQVTVSS” it was “high polyreactivity”. “QVQLVESGGGLVQAGGSLRLSCAASGSTIYFYAMGWYRQAPGKERELVAAITRSGSTYYADSVKGRFTISRDNAKNTVYLQLNSLKPEDTAVYYCNADQYYGCRYVYLRHYNYWGQGTQVTVSS”: the “polyreactivity (PSR sort gate)” value is “high polyreactivity”. Regarding “QVQLVESGGGLVQAGGSLRLSCAASGSTFNSYAMGWYRQAPGKESELVAAITSSGSRTRYADSVKGRFTISRDNAKNTVYLQMNSLKPEDTAVYYCAAVYRLKSGGVWRDSQFGYWGQGTQVTVSS”, the “polyreactivity (PSR sort gate)” value is on record as “high polyreactivity”.

Turning to “QDQLVESWGCLVQAGGSLRLSCAASRRIFGGHTMGWYRQAPGKERELVAAITSGRSTTYADSVKGRFTISRDNAKNSVYFLMNSLKPEDTAVDYCAARYVYPNQWTPYIRPYDYWGQGTQVTVSS”, the “polyreactivity (PSR sort gate)” value is recorded as “low polyreactivity”.

On to “QVQLVESGGGLVQAGGSLRLSCAASGRIFLVYVMGWYRQAPGKERELVAAISASDGSTYYADSVKGRFTISRDNAKNTVYLQMNSLKPEDTAVYYCAEWGYSLDSNSYRELNYWGQGTQVTVSS”, for which the “polyreactivity (PSR sort gate)” value was “low polyreactivity”. Regarding “QVQLVESGGGLVQAGGSLRLSCAASGNIFLSYAMGWYRQAPGKERELVAGISASGGRTYYADSVKGRFTISRDNAKNTVYLQMNSLKPEDTAVYYCATRNTRFHLDYWGQGTQVNVSS”, the “polyreactivity (PSR sort gate)” value is “high polyreactivity”.

On to “QVQLVESGGGLVQAGGSLRLSRAASGFTITYNAKGWSRPAPGKESELVAAITGDGGSTYYADSVKGRFTISRDNAKNTVYLQMNSLKPEDTAVYYCAAYVVWGGTDGRYDYWGQGTQVTVSS”, for which the “polyreactivity (PSR sort gate)” value is on record as “low polyreactivity”. To “QVQLVESGGGLVQAGGSLRLSCAASGSIFPIYAMGWYRQAPGKERELVAAITRSDGSTYYADSVKGRFTISRDNAKNTVYLQMNSLNPEDTAVYYCGDYGYWGQGTQVTVSS” belongs “low polyreactivity”. In the case of “QVQLVESGGGLVQAGGSLRLSCAASGSIFIGYAMGWYRQAPGKERELVAAISNSGGRTYYADSVKGRFTISRDNAKNTVYLQMNSLKPEDTAVYYCNVAYRIPYRMDYWGQGTQVTVSS”, the “polyreactivity (PSR sort gate)” value is listed as “high polyreactivity”.

As for “QVQLVESGGGLVQAGGSLRLSCAASGSTFGLYARGWYRQAPGKERELVAAISGGRTYYADSVKGRFTISRDNAKNTVYLQMNSLKPEDTAVYYCAADYNYYWGQGTQVTVSS”, the “polyreactivity (PSR sort gate)” value is given as “high polyreactivity”. For “QVQLVESGGGLVQAGGSLRLSCAASGRIFYRYAMGWYRQAPGKERELVADITWRGGRTYYADSVKGRFTISRDNAKNTVYLQMNSLKPEDTAVYYCAATGGFYYWGQGTQVTVSS”, the “polyreactivity (PSR sort gate)” value is given as “low polyreactivity”.

Take “QVQLVESGGGLVQAGGSLRLSCAASGSTLVTNAMGWYRQAPGKERELVAAITFSGGTTYYADSVTGRFTISRDNAKNTVYVQMNSLKPEDTAVYYCAAEIWLEYVGYDYWGQGTQVTVSS”: the “polyreactivity (PSR sort gate)” value is “high polyreactivity”. To “QVQLVESGGGLVQAGGSLRLSCAASGIIFYRYAMGWYRQAPAKERELVAAISRSGGSTYYADSVKGRFTISRDNAKNTVYLQMNSLKPEDTAVYYCAARVRTNYYGSYYYWGQGTQVTVSS” belongs “high polyreactivity”; to “QVQLVESAGGLVQAGGSLRLSCAASGLTFSIYALGWYRQAAGKERELVAAITGRGGRTYYADSVKGRFPISRDNAKNTVYLQMNTLKPDDTAVYYCAARYRGTDFDYWGQGTQVTVSS”, “high polyreactivity”. Regarding “QVQLVESGGGVVQAGVTLRLSCAASGRIFHYNAMGWYRQAPGKEREMVAAFTWIGGSTYADSVKGRFTISRDNSKNSVYLLMNSLKPEDTAVYYFNARYIYRFDFWGQGTQVTVSS”, the “polyreactivity (PSR sort gate)” value was “low polyreactivity”. Turning to “QVHLVESGGGLFQEGGSLRLSCAPSGSNFATYTMGWYRQAPGKERELVAAIRRSGGSTYYADSVKGRFTLSRDNAKNTVYLLMNSLKPEDTEVYYCAAKHYYYSPYVRYDPPPGYYWGQGTQVTVSS”, the “polyreactivity (PSR sort gate)” value is reported as “high polyreactivity”. On to “QVQLVESVGGLVQAGGSLRLTCAASGIIFAWYVMGWYRQAPGKERELVAAITQSGGSTFYADSVKGRFTISRDNAKNTVYLQMNSLKPEDTAVYYCNTEDFVNVPEMDSWGQGTQVTVSS”, for which the “polyreactivity (PSR sort gate)” value is “low polyreactivity”. In the case of “QVQLVESGGGLVQAGGSLRLSCAASGSIFRSNAMGWYRQAPGKERELVAAISWRGGRTYYADSVKGRFTISRDNAKNSVYLLMNSLKPEDTAVYYCATEVEPYAYGYWGQGTQVTVSS”, the “polyreactivity (PSR sort gate)” value is reported as “high polyreactivity”.

Regarding “QVQLVESGGGLVQAGGSLRLSCAASGNTFRYYAMGWYRQAPGKERELVAVITTRGGSTNYADSVKGRFTISRDNAKNTVYLQMNSLKPEDTAVYYCAARPGIRSYPPGYGYWGQGTQVTVSS”, the “polyreactivity (PSR sort gate)” value is given as “low polyreactivity”. To “QVQLVESGGGLVQAGGSLRLSFAASGRIFGYYAMGWYRQAPGKERELVAAITTSDGSTYYADSVKGRFTISRDNAKNTVYLQMNSLKPEDTAVYYCNARRWGYQWRGDYWGQGTQVTVSS” belongs “high polyreactivity”.
